Experimental data from article PMC5548745, “Agonist-induced dimer dissociation as a macromolecular step in G protein-coupled receptor signaling” (Nature Communications, 2017).

Key:
FZD6–FZD6 dimer = assay: dcFRAP of V5-FZD6-mCherry/FZD6-GFP (FZD6 dimerization); format: cell-based, human; details: HEK293, after CL
How it was run: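 Live cells co-expressing V5-FZD6-mCherry and FZD6-GFP, surface V5 tag crosslinked with biotin-anti-V5 plus avidin in BE buffer at RT. Membrane areas photobleached, recovery imaged (488/561 nm) over 100 s; mobile fraction from background/bleach-corrected, pre-bleach-normalized intensity at 85-101 s. Cells with <40% crosslink-induced mobility reduction excluded.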

[1] = tested on: ERK1/2 phosphorylation in MLE-12 cells; assay: P-ERK1/2 immunoblot, WNT-5A stimulated MLE-12 cells; format: cell-based, mouse; details: 300 ng ml^−1 WNT-5A
Protocol: MLE-12 or HEK293 cells (ATCC) were plated in a 24- or 48-well plate at a density of 100,000 or 50,000 cells/well, respectively. After 24 h, cells were transfected using Lipofectamine 2000 according to the manufacturer’s instructions. Cells were stimulated (24 h post-transfection) with 300 ng ml^−1 recombinant carrier-free WNT-5A (CF WNT-5A; R&D Systems). Stimulation was stopped by the addition of lysis buffer (1% NP-40, 150 mM NaCl, 50 mM Tris/HCl pH 8). Lysates were sonicated and analyzed by 7.5 or 10% Mini-PROTEAN TGX precast polyacrylamide gels (Bio-Rad) and transferred to PVDF membranes using the Trans-Blot Turbo system (Bio-Rad). […] Proteins were detected with horseradish peroxidase-conjugated secondary antibodies (goat anti-rabbit and goat anti-mouse (Pierce)) and Clarity Western ECL Blotting Substrate (Bio-Rad). […]
Supplementary Figure 6: FZD6 in mouse lung epithelial cells, related to Figure 6. […] The bar graph depicts expression levels of fzd1-10 mRNA in mouse lung epithelial cells (MLE-12) measured by quantitative PCR. […] Primer efficiency has been quantified previously (Halleskog et al., 2012). (b) MLE-12 wt and CRISPR/Cas9 FZD6+/- cells were seeded in a 24-well plate and counted after trypsinization at the indicated time points. Cell proliferation was quantified by cell counting in a Bürker chamber. […]

SNAP-FZD6 = SNAP-FZD6 internalization by confocal microscopy; format: cell-based; details: HEK293; WNT-5A 300 ng ml^−1, 15 min
Protocol: SNAP-FZD6 and SNAP-β2-AR were imaged in living cells using a Zeiss LSM710 equipped with a 40×, 1.2 NA C-Apochromat objective. The cell-impermeable SNAP substrate SNAP-Surface 549 (New England Biolabs) was added (1:1000, 15 min), washed twice in BE buffer and imaged using the 561 nm laser line. SNAP-FZD6 and SNAP-β2-AR were stimulated with 300 ng ml^−1 WNT-5A and 10 µM isoproterenol, respectively, and fluorescence was monitored over time.

B1: WNT-5A: recombinant carrier-free WNT-5A (R&D Systems), agonist for FZDs (protein, UniProt P41221 62-380, looked up)
Protein Wnt-5a: IIGAQPLCSQLAGLSQGQKKLCHLYQDHMQYIGEGAKTGIKECQYQFRHRRWNCSTVDNTSVFGRVMQIGSRETAFTYAVSAAGVVNAMSRACREGELSTCGCSRAARPKDLPRDWLWGGCGDNIDYGYRFAKEFVDARERERIHAKGSYESARILMNLHNNEAGRRTVYNLADVACKCHGVSGSCSLKTCWLQLADFRKVGDALKEKYDSAAAMRLNSRGKLVQVNSRFNSPTTQDLVYIDPSPDYCVRNESTGSLGTQGRLCNKTSEGMDGCELMCCGRGYDQFKTVQTERCHCKFHWCCYVKCKKCTEIVDQFVCK
mobile fraction of FZD6-GFP after WNT-5A, 5 min (FZD6–FZD6 dimer; WNT-5A 300 ng ml^−1, 5 min, 12 ROIs): 71.8 ± 3.2%
mobile fraction of FZD6-GFP after WNT-5A, 20 min (FZD6–FZD6 dimer; WNT-5A 300 ng ml^−1, 20 min, 15 ROIs): 61.0 ± 2.2%
phosphorylation of ERK1/2 on WNT-5A stimulation [1]: time-dependent, partially pertussis toxin-sensitive phosphorylation of ERK1/2
time of maximal increase in P-ERK1/2 ([1]; 0–20 min, three independent experiments): 5 min
internalization of SNAP-FZD6 (SNAP-FZD6): minimal internalization of SNAP-FZD6 was observed and this was not enhanced by the addition of recombinant WNT-5A
